Laboratory results as given in US20050181476.

Assays:
[1] = molecular target: E-MyD88S
[2] = molecular target: MyD88

Sequence of E-MyD88S (chain, as listed by the source): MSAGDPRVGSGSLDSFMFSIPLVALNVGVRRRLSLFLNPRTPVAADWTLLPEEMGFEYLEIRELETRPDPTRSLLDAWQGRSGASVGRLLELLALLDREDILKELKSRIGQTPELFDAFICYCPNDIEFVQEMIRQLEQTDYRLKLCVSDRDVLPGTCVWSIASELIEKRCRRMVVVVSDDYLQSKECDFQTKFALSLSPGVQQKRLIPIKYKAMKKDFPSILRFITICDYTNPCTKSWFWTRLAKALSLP

B1: IRAK-4 (protein)
chain: MNKPITPSTYVRCLNVGLIRKLSDFIDPQEGWKKLAVAIKKPSGDDRYNQFHIRRFEALLQTGKSPTSELLFDWGTTNCTVGDLVDLLIQNEFFAPASLLLPDAVPKTANTLPSKEAITVQQKQMPFCDKDRTLMTPVQNLEQSYMPPDSSSPENKSLEVSDTRFHSFSFYELKNVTNNFDERPISVGGNKMGEGGFGVVYKGYVNNTTVAVKKLAAMVDITTEELKQQFDQEIKVMAKCQHENLVELLGFSSDGDDLCLVYVYMPNGSLLDRLSCLDGTPPLSWHMRCKIAQGAANGINFLHENHHIHRDIKSANILLDEAFTAKISDFGLARASEKFAQTVMTSRIVGTTAYMAPEALRGEITPKSDIYSFGVVLLEIITGLPAVDEHREPQLLLDIKEEIEDEEKTIEDYIDKKMNDADSTSVEAMYSVASQCLHEKKNKRPDIKKVQQLLQEMTAS
- in vitro phosphorylation of IRAK-1KD induced by IRAK-4 co-expression [1]: in vitro phosphorylation of IRAK-1KD induced by IRAK-4 co-expression was completely inhibited when MyD88S was co-expressed
- IRAK-4-induced IRAK-1KD phosphorylation (slower migrating species in SDS-PAGE; in vitro kinase assay) [2]: Addition of MyD88, however, significantly enhanced IRAK-4-induced IRAK-1KD phosphorylation
